Results on one protein are retold here after paper PMC4459106.

Substrate in this data set: CC(C)C[C@H](NC(=O)[C@H](CCCCN)NC(=O)[C@H](C)NC(=O)[C@@H]1CCCN1C(=O)[C@H](CO)NC(=O)[C@H](CCCNC(=N)N)NC(=O)[C@@H]1CCCN1)C(=O)N[C@@H](CO)C(=O)N[C@@H](Cc1ccccc1)C(=O)N[C@@H](CCC(N)=O)C(=O)N[C@@H](Cc1ccccc1)C(=O)N1CCC[C@H]1C(=O)N[C@@H](CO)C(=O)O
Briefly: purified protein, by the assay type. The format is biochemical, rat (rat ERK2 numbering used throughout). The settings on record: other: phosphorylation by 2 nM ppERK2, 1.6–400 μM Elk387-399, 500 μM γ-32P ATP, 25 mM HEPES pH 7.5, 10 mM MgCl2, 30 °C, Michaelis-Menten fit. The procedure:
Kinase assays to determine the Michelis-Menten parameters for the phosphorylation of Elk387-399by ppERK2 were performed in 100 μL volumes at 30 °C in a buffer containing 25 mM HEPES pH 7.5, 50 mM KCl, 0.1 mM EDTA, 0.1 mM EGTA, 2 mM DTT, 10 mM MgCl2, and 40 μg/mL BSA. […] The reaction mixture was incubated for 10 minutes at 30 °C before initiation with 500 μM γ-^32P ATP (specific activity of 1 × 10^15 cpm/mol). Aliquots (10 μL) were spotted onto P81 filter papers at fixed times. The filter papers were washed three times for 15 minutes with 50 mM phosphoric acid to remove excess ATP and washed once with acetone for drying. The amount of phosphate incorporated into Elk387-399was determined by the associated counts per minute on a scintillation counter (Packard 1500) at a σ value of 2.

B1: ppERK2 (Rattus norvegicus) (protein)
chain: MAAAAAAGPEMVRGQVFDVGPRYTNLSYIGEGAYGMVCSAYDNLNKVRVAIKKISPFEHQTYCQRTLREIKILLRFRHENIIGINDIIRAPTIEQMKDVYIVQDLMETDLYKLLKTQHLSNDHICYFLYQILRGLKYIHSANVLHRDLKPSNLLLNTTCDLKICDFGLARVADPDHDHTGFLTEYVATRWYRAPEIMLNSKGYTKSIDIWSVGCILAEMLSNRPIFPGKHYLDQLNHILGILGSPSQEDLNCIINLKARNYLLSLPHKNKVPWNRLFPNADSKALDLLDKMLTFNPHKRIEVEQALAHPYLEQYYDPSDEPIAEAPFKFDMELDDLPKEKLKELIFEETARFQPGYRS
notes: made in house
Turning to B1, the Km worked out at 13.4 ± 1.1 µM and the turnover number (kcat) came to 0.56 ± 0.1 s⁻¹.
